In patent US20120251554A1 (TECHNISCHE UNIVERSIT T DRESDEN, published 2012) one finds Kd and specific lysis of the CD33+-Hek293T cells (51Cr release assay, 20-hour in vitro culture) data, which are given here for 3 molecules.

Experiment [1] concerns the target T1, human CD33 (human, UniProt P20138 18-364).
T1 construct: whole, on cells; also called CD33+-Hek293T cells; Hek293T-CD33
The experiment is described as follows: method not stated (sentence refers to FIG. 3, flow cytometry). (In general: In flow cytometry, cells or beads pass a laser one at a time.)

Experiment [2] deals with T1, human CD33. The experiment is described as follows: cell-based or functional assay.

Bounds are passed on as bounds.

T1 sequence (P20138 18-364): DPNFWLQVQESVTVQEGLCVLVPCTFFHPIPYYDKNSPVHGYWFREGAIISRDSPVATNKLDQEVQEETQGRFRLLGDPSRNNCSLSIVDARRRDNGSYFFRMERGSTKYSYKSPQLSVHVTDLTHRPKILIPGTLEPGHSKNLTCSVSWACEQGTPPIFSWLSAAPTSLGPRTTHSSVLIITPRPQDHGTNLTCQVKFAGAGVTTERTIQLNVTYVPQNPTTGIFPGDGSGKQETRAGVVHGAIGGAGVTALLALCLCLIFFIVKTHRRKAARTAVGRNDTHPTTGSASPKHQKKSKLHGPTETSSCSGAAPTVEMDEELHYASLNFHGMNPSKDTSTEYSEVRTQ

B1: anti-CD33DRB2 (antibody, V domains shown)
VH: EVKLQESGPELVKPGASVKMSCKASGYKFTDYVVHWLKQKPGQGLEWIGYINPYNDGTKYNEKFKGKATLTSDKSSSTAYMEVSSLTSEDSAVYYCARDYRYEVYGMDYWGQGTSVTVSS
VL: DIVLTQSPTIMSASPGERVTMTCTASSSVNYIHWYQQKSGDSPKRWIFDTSKVASGVPARFSGSGSGTSYSLTISTMEAEDAATYYCQQWRSYPLTFGDGTRLELKR
notes: Murine monoclonal antibody from a hybridoma; also called monoclonal anti-CD33DRB2; anti-CD33DRB antibody
What is called Kd is the constant that tells how readily two partners part at equilibrium. Read a high Kd as lower affinity. For B1, the dissociation constant Kd in the experiment with human CD33 [1] was approximately 0.1 nM.

B2: anti-CD33DRB1 (antibody, V domains shown)
VH: EVKLQESGAELVRPGVSVKISCKGSGYTFTDYVLHWVKQSHAKSLEWIGLINTYNGDVRYNQKFMGKATMTIEKSSSTAYMELVRLTSEDSAIYYCARDYRYEYYAMDYWGQGTSVTVSS
VL: DIVLTQSPAIMSASPGEKVTMTCSANSSVSYIHWYQQKSGTSPKRWIFDTSKLASGVPARFSGSGSGTSYSLTISTMEAEDAATYYCQQWTSHPLTFGTGTKLQLKR
notes: Murine monoclonal antibody from a hybridoma (tested as hybridoma supernatant); also called monoclonal anti-CD33DRB1; anti-CD33DRB antibody
In the experiment with human CD33 [1], B2 registered a Kd of approximately 0.1 nM.

B3: CD33-L18-GFP-L18-CD3 (bispecific antibody, part only; not given: anti-CD3 scFv, GFP, linkers, not shown: small tags and cut ends; large carriers)
chain, part: EVKLQESGPELVKPGASVKMSCKASGYKFTDYVVHWLKQKPGQGLEWIGYINPYNDGTKYNEKFKGKATLTSDKSSSTAYMEVSSLTSEDSAVYYCARDYRYEVYGMDYWGQGTSVTVSSDIVLTQSPTIMSASPGERVTMTCTASSSVNYIHWYQQKSGDSPKRWIFDTSKVASGVPARFSGSGSGTSYSLTISTMEAEDAATYYCQQWRSYPLTFGDGTRLELKRADAAPTVS
In turn, B3 displayed a specific lysis of the CD33+-Hek293T cells (51Cr release assay, 20-hour in vitro culture) with human CD33 [2] of less than 86%.
